Changes are numbered by the printed parent chain.
B1: clone 21.01 (ssRNA)
RNA: GGGAGAUCAGAAUAAACGCUCAACUGAUCAAUGGCGUACAAUGGAUUCGUUCUCAUAACCAAAACCCUUACCCCUUGGACUGAUUCGACAUGAGGCCCCUGCAGGGCG
B2: clone 21.07 (ssRNA)
RNA: GGGAGAUCAGAAUAAACGCUCAAUUGACUCAAUGGCGUACAAUGGAUUCGUUCUCAUAACCAAAACCCUUACCCCUUGGACUGUUCGACAUGAGGCCCCUGCAGGGCG
B3: clone 21.06 (ssRNA)
RNA: B1 RNA with A83U
B4: clone 21.05 (ssRNA)
RNA: B1 RNA with C72U, A83C
B5: clone 21.03 (ssRNA)
RNA: B1 RNA with A83C
B6: clone 21.04 (ssRNA)
RNA: B1 RNA with U50C, A83C
B7: clone 21.02 (ssRNA)
RNA: GGGAGAUCAGAAUAAACGCUCAACUGAUCAAUGGCGUACAAUGGAUUCGUUCUCAUAACCAAAACCCUUACCCCUGGACUGAUUCGACAUGAGGCCCCUGCAGGGCG
B8: clone 21.08 (ssRNA)
RNA: GGGAGAUCAGAAUAAACGCUCAAUUGAAGAUCGUACAAUGGAUUCGAUCAUAACCCGAAGUUUUUAAACACUCUUUACCUGUAUUCGACAUGAGGCCCCUGCAGGGCG
B9: clone 21.12 (ssRNA)
RNA: GGGAGAUCAGAAUAAACGCUCAAGCGACAAGCAGCAGAUAAAGUUGAGCGCAACGCCGCUACAGAACCAAAUUAACAUGUAUGUUCGACAUGAGGCCCCUGCAGGGCG
B10: RNA aptamer SEQ ID NO:25 (ssRNA)
RNA: GGGAGUGGAGGAAUUCAUCGAGGCAUAUGUCGACUCCGUCUUCCUUCAAACCAGUUAUAAAUUGGUUUUAGCAUAUGCCUUAGCGACAGCAAGCUUCUGC
B11: RNA aptamer SEQ ID NO:28 (3'-truncated) (ssRNA)
RNA: GGGAGUGGAGGAAUUCAUCGAGGCAUAUGUCGACUCCGUCUUCCUUCAAACCAGUUAUAAAUUGGUUUUAGCAUAUGCCU
B12: RNA aptamer SEQ ID NO:26 (ssRNA)
RNA: GGGAGUGGAGGAAUUCAUCGAGGCAUGACCUCCCGUGGCAGUAGGGGUAAAAAUUAUCUUCCUACACUUCUCAUGCCUUAGCGACAGCAAGCUUCUGC

Biological target: T1, Raf-1 RBD (GST-RBD) (UniProt P04049 P04049:51-131)
Experiment: filter; group 1; value only in figure; PBS + 5 mM MgCl2, 37 C
Conditions: tags: GST fusion, expressed in E. coli; label: 32P
Experimental: The interaction between the 10 RNAs among them and GST-RBD was examined by a binding assay using a nitrocellulose filter.
(§1) An RNA (4 nM) of which the 5'-terminus was labeled and 50 to 1,250 nM of GST-RBD were incubated in 600 µl of a binding buffer at 37° C. for 30 minutes. The culture was filtered with a nitrocellulose filter, and the radioactivity on the filter was measured. The Kd value was calculated using a software: Kalleider Graph (Bell, S. D., et al., (1998) J. Biol. Chem. 273, 14309–14314).

| Binder | binding result |
| --- | --- |
| B1 | binds |
| B2 | binds |

Biological target: T1, Raf-1 RBD (GST-RBD)
Experiment: filter; group 1; percent bound only in figure
Conditions: tags: GST fusion, expressed in E. coli; label: 32P

| Binder | binding result |
| --- | --- |
| B3 | binds |
| B4 | binds |
| B5 | binds |
| B6 | binds |
| B7 | binds |
| B8 | binds |

Biological target: T1, Raf-1 RBD (GST-RBD)
Experiment: filter; scarcely bound; no inhibition of Ras binding at 12.5 uM
Conditions: tags: GST fusion, expressed in E. coli; label: 32P

| Binder | binding result |
| --- | --- |
| B9 | no binding |

Biological target: T1, Raf-1 RBD (GST-RBD)
Experiment: filter; PBS + 5 mM MgCl2, 37 C
Conditions: tags: GST fusion, expressed in E. coli; label: 5'-32P
Experimental: as §1

| Binder | Kd [nM] |
| --- | --- |
| B10 | 124 |
| B11 | 176 |
| B12 | 295 |
